Experimental data published in publication PMC3032389.

Biological target: NMDA receptor NR1-1a subunit, full length (rat)
Experiment: co-IP

Question: With “C-terminal Src kinase (Csk) (from UniProt P41240 1-450) (enzyme)” as the substance, how does the Csk co-precipitated with NR1 after PP2 (10 μM), percent of that without PP2 read?
Answer: 48%
